The assay deals with H2A.Z(D97N/S98K)-containing nucleosome core particle with wild-type H4 (H4K20) (UniProt P06899 1-126; P68431 1-136; P62805 1-103). In words: MST.

B1: SUV420H1(1–390), wild type, with N-terminal 6× His-TEV tag (domain or fragment)
chain: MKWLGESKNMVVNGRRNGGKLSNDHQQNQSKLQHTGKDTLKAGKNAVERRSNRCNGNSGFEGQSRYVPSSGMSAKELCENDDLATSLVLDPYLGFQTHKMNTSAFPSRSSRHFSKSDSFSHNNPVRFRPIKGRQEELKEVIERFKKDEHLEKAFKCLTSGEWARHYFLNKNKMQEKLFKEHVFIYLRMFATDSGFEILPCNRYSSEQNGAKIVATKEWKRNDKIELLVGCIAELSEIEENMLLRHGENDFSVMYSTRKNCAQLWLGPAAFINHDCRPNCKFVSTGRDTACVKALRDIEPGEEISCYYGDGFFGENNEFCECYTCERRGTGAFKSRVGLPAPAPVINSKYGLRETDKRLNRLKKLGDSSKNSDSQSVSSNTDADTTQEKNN
modifications: RED-tris-NTA dye on the His tag
In the case of B1, the dissociation constant Kd worked out at 219 nM.

The record behind these values is publication PMC10697951 (2023).
